Data: publication PMC3294125

Columns and labels:
Assay in all cases: kinetics
Asp139 = Asp139 (UniProt position 139, AFPRMDNLSYW); conditions: Continuous catalytic turnover; cited from earlier work
Asp26 = Asp26 (UniProt position 26, FMSTNDKDIGV); conditions: Continuous catalytic turnover
Cys139 = Cys139 (UniProt position 139, AFPRMCNLSYW); conditions: Continuous catalytic turnover; cited from earlier work
Asp132 = Asp132 (UniProt position 132, HIGAPDMAFPR); conditions: Continuous catalytic turnover; cited from earlier work

Substance: Cytochrome c oxidase (aa3-type), subunit I N139D-D132N, subunit III-depleted (Rhodobacter sphaeroides; N139D;D132N)
- pKa (Asp139): 7.7 (7.5–7.9)

Substance: Cytochrome c oxidase (aa3-type), subunit I H26D-D132A, subunit III-depleted (Rhodobacter sphaeroides; H26D;D132A)
- pKa (Asp26): 7.0 (6.9–7.1)

Substance: Cytochrome c oxidase (aa3-type), subunit I N139C-D132N, subunit III-depleted (Rhodobacter sphaeroides; N139C;D132N)
- pKa (Cys139): 8.0 (7.9–8.1)

Substance: Cytochrome c oxidase (aa3-type), subunit I, in subunit III-depleted enzyme [WT III (−)] (Rhodobacter sphaeroides)
- pKa (Asp132): 7.0–7.3
